Laboratory results: PMC5401905, “Regulation of Inducible Potassium Transporter KdpFABC by the KdpD/KdpE Two-Component System in Mycobacterium smegmatis”

T1: KdpE (Mycobacterium smegmatis) (UniProt A0R399)
T1 sequence: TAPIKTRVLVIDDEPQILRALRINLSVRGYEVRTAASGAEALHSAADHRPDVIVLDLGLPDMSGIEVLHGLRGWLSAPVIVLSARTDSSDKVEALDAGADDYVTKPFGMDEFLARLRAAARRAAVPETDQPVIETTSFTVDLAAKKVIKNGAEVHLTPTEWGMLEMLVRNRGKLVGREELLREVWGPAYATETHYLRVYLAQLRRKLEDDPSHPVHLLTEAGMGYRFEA

T2: KdpE (Mycobacterium smegmatis, UniProt A0R399 2-230)
T2 sequence: T1 sequence

B1: FPC-22 (dsDNA)
DNA 1: CCGTAAAGAAACCATCAAGGCC
DNA 2: GGCCTTGATGGTTTCTTTACGG
B2: FPC-18 (dsDNA)
DNA 1: AAGAAACCATCAAGGCCG
DNA 2: CGGCCTTGATGGTTTCTT
B3: FPC-28 (dsDNA)
DNA 1: CCGTAAAGAAACCATCAAGGCCGCGTTC
DNA 2: GAACGCGGCCTTGATGGTTTCTTTACGG
B4: FPC-33 (dsDNA)
DNA 1: ACCGTAAAGAAACCATCAAGGCCGCGTTCGCGG
DNA 2: CCGCGAACGCGGCCTTGATGGTTTCTTTACGGT

Tests used:
[1] = molecular target: T1, KdpE (Mycobacterium smegmatis); assay: competition; settings: 10 mM Tris pH 7.5 (20 C), 100 mM KCl, 1 mM EDTA, 0.1 mM DTT, 5% glycerol, 0.010 mg/mL BSA, 0.5 mM Na2ATP; 25 C, 1 h; 6% native PAGE in 0.25x TBE
[2] = molecular target: T1, KdpE (Mycobacterium smegmatis); assay: EMSA; settings: 10 mM Tris pH 7.5 (20 C), 100 mM KCl, 1 mM EDTA, 0.1 mM DTT, 5% glycerol, 0.010 mg/mL BSA, 0.5 mM Na2ATP; 25 C, 1 h; 6% native PAGE in 0.25x TBE
[3] = molecular target: T1, KdpE (Mycobacterium smegmatis); assay: DNase I footprinting; settings: 10 mM Tris pH 7.5 (20 C), 100 mM KCl, 1 mM EDTA, 0.1 mM DTT, 5% glycerol, 0.010 mg/mL BSA, 0.5 mM Na2ATP; 25 C, 1 h; 6% native PAGE in 0.25x TBE
KdpE = molecular target: T2, KdpE; assay: EMSA; 0.5 mM ATP; 10 mM Tris pH 7.5 (20 C), 100 mM KCl, 1 mM EDTA, 0.1 mM DTT, 5% glycerol, 0.010 mg/mL BSA, 0.5 mM Na2ATP; 25 C, 1 h; 6% native PAGE in 0.25x TBE; settings: protein: recombinant; tags: 6xHis (pET28a); chain copies: 2; blunt

Molecule	binding [1]	binding [2]	binding [3]	binding result (KdpE)
CCCGAGGCGCCGGCGCCCGGCCGAGCAGGTGCGTCGGGTGTCGGCAGGCGCGGCAGCCCGCGGAGCAAGCAGGGACATGAGCTTCGTCGAGTGGGTCACCCCTCGAACATCCATCAACCGAGCCATGACGACGAGTGTCCTGGCGGAGTCTTGGCCGCTGCTGTACAAACCTTGACGCCGCACTGACAGTCCGTCGGGAACCGCCTGTGCGCCGGCTTCGAACAAACGGTGTCAAATACGGCCGCCGCACCGTAAAGAAACCATCAAGGCCGCGTTCGCGGTCCTGAACTGGGCAGATCC (double strand) [PkdpF 300-bp probe]	binds	binds	binds	–
B1	–	–	–	binds
B2	–	–	–	no binding
B3	–	–	–	binds
B4	–	–	–	binds
